This passage reports protein stability index results from the supplement of paper PMC10567573.

The labels stand for the following.
B1: ATL3 (parent)
chain: EKALASILLQDHIRDLDVVVVSVA
B2: PI4K2A (parent)
chain: FVKDPQGRIIAVFKPKNEEPYGHL
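Note: lentivirally expressed fusions sorted by FACS into six bins by GFP to DsRed ratio, PSI derived from sequencing read proportions per bin multiplied by bin number.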

Variants of B1 are the subject of the first series. Description: protein stability index of a GFP-peptide fusion (GPS, HEK-293T) (PSI 1-6); higher = more stable. Particulars: c terminus: a fixed tail appended.
For EKALASITLQDHIRDLDVVVVSVA, the protein stability index was 1.55. The same measure, in the same setting: the value for EKALASILLQDHIRDNDVVVVSVA was 1.46; that for EKALASILLQDHIDDLDVVVVSVA was 2.15; that for EKALASILLQDHIRDLDVVVNSVA was 2.16. On to EKALASILLQDHIRDLDVVWVSVA, for which the protein stability index was found to be 3.67. As for EKALASILLQDHIRDLDVVNVSVA, the protein stability index amounted to 3.1. Turning to EKALASILLQDHIRDLDVVPVSVA, the protein stability index came out at 3.2. For ERALASILLQDHIRDLDVVVVSVA, the protein stability index worked out at 1.3. For the variant EKALASILLQDGIRDLDVVVVSVA, the protein stability index worked out at 4.08. The same measure, in the same setting: the value for EKALASILLQDTIRDLDVVVVSVA was 2.26; that for EKALASILLQDHIRDLDNVVVSVA was 2.

For EKALASILLQDHIRDLDHVVVSVA, the protein stability index worked out at 1.06. On to EKALASILLQDHIRDLDVVVVSDA, for which the protein stability index came to 3.01. As for EKALASLLLQDHIRDLDVVVVSVA, the protein stability index was 1.97. For EKALASKLLQDHIRDLDVVVVSVA, the protein stability index amounted to 2.32. Take EKALASTLLQDHIRDLDVVVVSVA: the protein stability index stood at 2.13. On to EKALASILLQDHIRDLDVVVVLVA, for which the protein stability index came out at 2.02. Turning to EKAYASILLQDHIRDLDVVVVSVA, the protein stability index was 1.83.

For the variant EKALWSILLQDHIRDLDVVVVSVA, the protein stability index came to 2.08.

For the variant HKALASILLQDHIRDLDVVVVSVA, the protein stability index is 2.05. For the variant EKALASILPQDHIRDLDVVVVSVA, the protein stability index came out at 1.61. Regarding EKALASILLQPHIRDLDVVVVSVA, the protein stability index amounted to 3.03. As for EKALASILLQGHIRDLDVVVVSVA, the protein stability index was 3.66. The same measure, in the same setting: the value for EKALALILLQDHIRDLDVVVVSVA was 3.06; that for EKALASILLQDHIRDLPVVVVSVA was 2.93. For EKALASILLQDHIRDLIVVVVSVA, the protein stability index worked out at 1.36. On to EKALASILLQDHIRDLDVAVVSVA, for which the protein stability index came out at 1.64. Turning to EKALASILLQDHIRDLDVQVVSVA, the protein stability index was found to be 1.42. For the variant EKALASILLQDHIRDLDVDVVSVA, the protein stability index came to 3.81. On to EKALASILLQDHIRDLDVCVVSVA, for which the protein stability index came out at 4.35. With EKALASILLQDHIRDLDVHVVSVA, the protein stability index amounted to 2.29.

In the next series the parent is B2. Described as above. The settings on record: c terminus: a fixed tail appended.
For FVKDPQGRIIAVFKPKNEDPYGHL, the protein stability index came to 2.16.

With FVKDPQGRIIAVFKPKNEWPYGHL, the protein stability index worked out at 2.91.

With FVKDPQGRIIAVFKPKNEPPYGHL, the protein stability index was found to be 1.78. In the case of FVKDPQGRIIAVFKPKNERPYGHL, the protein stability index was determined as 1.34. Still for that read-out and setting: the value for FVKDPQGRIIAVFKPKNETPYGHL was 2.09. Still for that read-out and setting: the value for FVKDPQGRIIAVFKPKNEAPYGHL was 1.58; that for FVKDPQGRIIAVFKPKNEFPYGHL was 1.52. For FVKDPQGRIIAVFKPKNEYPYGHL, the protein stability index came out at 1.73.

Take FVKDPQGRIIAVFKPKNEKPYGHL: the protein stability index stood at 2.58. Regarding FVKDPQGRIIAVFKPKNENPYGHL, the protein stability index amounted to 1.91. For the variant FVKDPQGRIIAVFKPKNEMPYGHL, the protein stability index came to 1.81.

FVKDPQGRIIAVFKPKNEIPYGHL: the protein stability index came out at 2.62. Consider FVKDPQGRIIAVFKPKNEVPYGHL, for which the protein stability index turned out to be 1.73.

FVKDPQGRIIAVFKPKNESPYGHL: the protein stability index was 1.71. The same measure, in the same setting: the value for FVKDPQGRIIAVFKPKNELPYGHL was 2.34; that for FVKDPQGRIIAVFKPKNECPYGHL was 2.52; that for FVKDPQGRIIAVFKPKNEGPYGHL was 1.67. For FVKDPQGRIIAVFKPKNEQPYGHL, the protein stability index is 2.03. For the variant FVKDPQGRIIAVFKPKNEHPYGHL, the protein stability index worked out at 2.1.

For FVKDPQGRIIAVFKPWNEEPYGHL, the protein stability index turned out to be 2.23. In the case of FVKDPQGRIIAVFKPTNEEPYGHL, the protein stability index was 1.42.

With FVKDPQGRIIAVFKPYNEEPYGHL, the protein stability index is 2.44. Take FVKDPQGRIIAVFKPVNEEPYGHL: the protein stability index stood at 2.79. On the same count and under the same terms, the value for FVKDPQGRIIAVFKPRNEEPYGHL was 1.77.

As to FVKDPQGRIIAVFKPSNEEPYGHL, the protein stability index turned out to be 1.48. With FVKDPQGRIIAVFKPKQEEPYGHL, the protein stability index stood at 1.97.

FVKDPQGRIIAVFKPKGEEPYGHL: the protein stability index was 1.48. Turning to FVKDPQGRIIAVFKPKIEEPYGHL, the protein stability index came out at 1.63.

Consider FVKDPQGRIIAVFKPKEEEPYGHL, for which the protein stability index was determined as 2.33.

With FVKDPQGRIIAVFKPKREEPYGHL, the protein stability index was 1.3. As to FVKDPQGRIIAVFKPKCEEPYGHL, the protein stability index amounted to 2.31. Regarding FVKDPQGRIIAVFKPKTEEPYGHL, the protein stability index came to 1.92. As for FVKDPQGRIIAVFKPKLEEPYGHL, the protein stability index was found to be 2.35.

On to FVKDPQGRIIAVFKPKDEEPYGHL, for which the protein stability index is 1.84. Consider FVKDPQGRIIAVFKPKAEEPYGHL, for which the protein stability index is 2.52. Consider FVKDPQGRIIAVFKPKWEEPYGHL, for which the protein stability index amounted to 2.41. Take FVKDPQGRIIAVFKPKVEEPYGHL: the protein stability index was 1.66.

As to FVKDPQGRIIAVFKPKSEEPYGHL, the protein stability index stood at 1.64.

In the case of FVKDPQGRIIAVFKPKFEEPYGHL, the protein stability index came to 1.57. Take FVKDPQGRIIAVFKPKKEEPYGHL: the protein stability index worked out at 1.73.

Take FVKDPQGRIIAVFKPKHEEPYGHL: the protein stability index stood at 2.38. For the variant FVKDPQGRIIAVFKPKMEEPYGHL, the protein stability index was found to be 1.9. Consider FVKDPQGRIIAVFKPKYEEPYGHL, for which the protein stability index worked out at 1.68. In the case of FVKDPQGRIIAVFKPKPEEPYGHL, the protein stability index turned out to be 2. Take FVKDPQGRIIAVFKPKNEEPYGRL: the protein stability index stood at 1.79. Take FVKDPQGRIIAVFKPKNEEPYGLL: the protein stability index was determined as 2.41.

FVKDPQGRIIAVFKPKNEEPYGGL: the protein stability index worked out at 2.6. As for FVKDPQGRIIAVFKPKNEEPYGAL, the protein stability index was 1.65.

Take FVKDPQGRIIAVFKPKNEEPYGML: the protein stability index stood at 1.87.

For FVKDPQGRIIAVFKPKNEEPYGKL, the protein stability index is 1.61. FVKDPQGRIIAVFKPKNEEPYGDL: the protein stability index worked out at 2.39. For the variant FVKDPQGRIIAVFKPKNEEPYGTL, the protein stability index was found to be 1.81.

Regarding FVKDPQGRIIAVFKPKNEEPYGWL, the protein stability index amounted to 1.83. As to FVKDPQGRIIAVFKPKNEEPYGSL, the protein stability index is 1.36. Take FVKDPQGRIIAVFKPKNEEPYGVL: the protein stability index was found to be 2.28. Regarding FVKDPQGRIIAVFKPKNEEPYGNL, the protein stability index came to 1.99. For the variant FVKDPQGRIIAVFKPKNEEPYGQL, the protein stability index was found to be 1.56. Regarding FVKDPQGRIIAVFKPKNEEPYGIL, the protein stability index came to 2.38.

With FVKDPQGRIIAVFKPKNEEPYGPL, the protein stability index was determined as 2.47.

As for FVKDPQGRIIAVFKPKNEEPYGEL, the protein stability index was 1.62. Turning to FVKDPQGRIIAVFKPKNEEPYGCL, the protein stability index is 1.94.

Turning to FVKDPQGRIIAVFKPKNEEPYGYL, the protein stability index was found to be 1.78. On to FVKDPQGRIIAVFKPKNEEPYGFL, for which the protein stability index came to 1.27.
